Publication doi:10.1101/2022.11.05.515281v1

Key:
Test in all cases: purified protein, by the assay type
[1] = substrate: CC1=CC(=O)CC1
[2] = substrate: O=[N+]([O-])C1=CCCCC1
[3] = substrate: COC(=O)C1=CCCCC1
[4] = substrate: CC1=CC(=O)[C@H]2C[C@@H]1C2(C)C
[5] = substrate: CC1=CCCC1=O
[6] = substrate: CC1=CC(=O)CC(C)(C)C1=O
[7] = substrate: C=C(C)[C@H]1CC=C(C)C(=O)C1

B1: MSMEG_2850 (Mycolicibacterium smegmatis MC2 155) (protein)
chain: MTEAIDWDQMNNQVIKEFRETGGKAGGLFEGSPLVLVHHTGAKSGKQRIAPLVPLLDGDRIYIFGSKGGADSHPDWYHNLVANPDTVVELGTETFPVKARVLTGAERDEIYAKQVAVAPQFGDYQRKTTRVIPVVELQRV
[1]
  Km: 862 ± 508 µM
  kcat: 0.018 ± 0.0026 s⁻¹
  kcat/Km: 21 ± 10.5 M⁻¹ s⁻¹
[2]
  Km: 1739 ± 136.9 µM
  kcat: 1.07 ± 0.0295 s⁻¹
  kcat/Km: 617 ± 35 M⁻¹ s⁻¹
[3]
  Km: 4355 ± 312.6 µM
  kcat: 0.279 ± 0.0071 s⁻¹
  kcat/Km: 64.1 ± 3.29 M⁻¹ s⁻¹

B2: MSMEG_2027 (Mycolicibacterium smegmatis MC2 155) (protein)
chain: MTDAELSPTDWVREQTERILEQGTTDGVHVLDRPIVLFTTTGAKSGKKRYVPLMRVEENGKYAMVASKGGDPKHPSWYFNVKANPTVSVQDGDKVLPDRTARELEGEEREHWWKLAVEAYPPYAEYQTKTDRLIPVFIVE
[4]
  Km: 2583 ± 667.2 µM
  kcat: 0.048 ± 0.0049 s⁻¹
  kcat/Km: 18.6 ± 3.22 M⁻¹ s⁻¹
[5]
  Km: 1514 ± 111 µM
  kcat: 0.783 ± 0.0157 s⁻¹
  kcat/Km: 517 ± 30.8 M⁻¹ s⁻¹
[6]
  Km: 4550 ± 360.6 µM
  kcat: 0.459 ± 0.013 s⁻¹
  kcat/Km: 101 ± 5.7 M⁻¹ s⁻¹
[7]
  Km: 3099 ± 916.4 µM
  kcat: 0.12 ± 0.0114 s⁻¹
  kcat/Km: 38.7 ± 8.62 M⁻¹ s⁻¹
